Experimental data from US20150125454A1 (Daiichi Sankyo, published 2015).

Biological target: human FGFR2 IIIc variant protein (isoform 1: NP-000132) (human, UniProt P21802 22-821)
Assay: flow cytometry (MFI) on transfected HEK293T cells, hybridoma supernatant; non-binding implied by 'selectively', values only in FIG. 1
Experimental: Each human FGFR expression vector constructed in Examples 1)-3-1 and 2)-1-1 was transfected to HEK293T cells by the method shown in Example 1)-5-1. The cell suspension was centrifuged to remove the supernatant. Then, these various human FGFR expression vector-transfected HEK293T cells and the pcDNA-DEST40-transfected HEK293T cells were separately suspended by the addition of the hybridoma culture supernatant containing the FR2-10, FR2-13, or FR2-14 antibody and left standing at 4° C. for 1 hour. The cells were washed twice with PBS containing 5% FBS, then suspended by the addition of Anti-Rat IgG FITC conjugate (manufactured by Sigma-Aldrich Corp.) diluted 320-fold with PBS containing 5% FBS, and left standing at 4° C. for 1 hour. The cells were washed 3 times with PBS containing 5% FBS and then resuspended in PBS containing 5% FBS and 2 μg/ml 7-aminoactinomycin D (manufactured by Molecular Probes, Inc.), followed by detection using a flow cytometer (FC500; manufactured by Beckman Coulter Inc.). The data was analyzed using Flowjo (manufactured by Tree Star Inc.). After removal of 7-aminoactinomycin D-positive dead cells by gating, the FITC fluorescence intensity of live cells was plotted to a histogram to calculate average fluorescence intensity (MFI).

human FGFR2 IIIc variant protein (isoform 1: NP-000132), sequence (P21802 22-821 limits assumed, change not shown): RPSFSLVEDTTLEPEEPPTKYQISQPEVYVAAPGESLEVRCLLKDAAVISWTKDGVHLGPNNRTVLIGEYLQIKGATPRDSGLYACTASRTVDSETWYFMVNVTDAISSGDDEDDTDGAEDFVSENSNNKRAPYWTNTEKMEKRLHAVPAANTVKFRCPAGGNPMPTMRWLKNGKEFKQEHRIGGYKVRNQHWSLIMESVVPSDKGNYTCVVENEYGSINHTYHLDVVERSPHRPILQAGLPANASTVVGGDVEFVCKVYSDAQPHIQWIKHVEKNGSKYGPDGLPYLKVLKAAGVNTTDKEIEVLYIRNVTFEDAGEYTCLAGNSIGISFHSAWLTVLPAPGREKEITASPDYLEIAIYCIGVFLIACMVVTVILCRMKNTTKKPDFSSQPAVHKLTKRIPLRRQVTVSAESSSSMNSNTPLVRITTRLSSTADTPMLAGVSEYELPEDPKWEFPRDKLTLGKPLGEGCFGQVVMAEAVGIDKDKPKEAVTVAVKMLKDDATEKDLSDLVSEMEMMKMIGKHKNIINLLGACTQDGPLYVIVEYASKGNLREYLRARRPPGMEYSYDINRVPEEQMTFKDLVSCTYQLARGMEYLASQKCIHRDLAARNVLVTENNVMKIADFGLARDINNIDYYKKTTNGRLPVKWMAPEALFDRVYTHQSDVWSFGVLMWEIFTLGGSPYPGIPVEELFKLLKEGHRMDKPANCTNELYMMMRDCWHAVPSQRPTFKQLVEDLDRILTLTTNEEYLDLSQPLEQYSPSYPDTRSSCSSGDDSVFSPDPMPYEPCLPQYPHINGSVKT

binding result: no binding
B1: rat anti-FGFR2 antibody FR2-10 (antibody, IgG2a, V domains shown)
VH: EVQLVESGGGLVQPGRSLKLSCVASGFRFNDFWMTWIRQAPGKGLEWVASITYTGDNTYYAGSVKGRITISRDNAKSTLYLQMNSLRSEDTATYYCTRDDYGGYSPYYMDAWGQGTSVTVSS
VL: DIQMTQSPSSLSAFLGDRVTITCRASQDIGNYLRWFQQKPGKSPRLMIYGATNLANGVPSRFSGSRSGSDYSLTINNLESEDMAIYYCLKHNEYPFTFGSGTKLEIKR
notes: Used as hybridoma culture supernatant in flow cytometry and as antibody purified from ascites elsewhere; also called rat FR2-10 antibody
